Test results from article PMC6504876, “TFIIE orchestrates the recruitment of the TFIIH kinase module at promoter before release during transcription” (Nature Communications, 2019).

B1: His-TFIIEβ/WT [not stated] / Flag-TFIIEα [not stated] (parent)
chain 1: MDPSLLRERELFKKRALSTPVVEKRSASSESSSSSSKKKKTKVEHGGSSGSKQNSDHSNGSFNLKALSGSSGYKFGVLAKIVNYMKTRHQRGDTHPLTLDEILDETQHLDIGLKQKQWLMTEALVNNPKIEVIDGKYAFKPKYNVRDKKALLRLLDQHDQRGLGGILLEDIEEALPNSQKAVKALGDQILFVNRPDKKKILFFNDKSCQFSVDEEFQKLWRSVTVDSMDEEKIEEYLKRQGISSMQESGPKKVAPIQRRKKPASQKKRRFKTHNEHLAGVLKDYSDITSSK
chain 2: MADPDVLTEVPAALKRLAKYVIRGFYGIEHALALDILIRNSCVKEEDMLELLKFDRKQLRSVLNNLKGDKFIKCRMRVETAADGKTTRHNYYFINYRTLVNVVKYKLDHMRRRIETDERDSTNRASFKCPVCSSTFTDLEANQLFDPMTGTFRCTFCHTEVEEDESAMPKKDARTLLARFNEQIEPIYALLRETEDVNLAYEILEPEPTEIPALKQSKDHAATTAGAASLAGGHHREAWATKGPSYEDLYTQNVVINMDDQEDLHRASLEGKSAKERPIWLRESTVQGAYGSEDMKEGGIDMDAFQEREEGHAGPDDNEEVMRALLIHEKKTSSAMAGSVGAAAPVTAANGSDSESETSESDDDSPPRPAAVAVHKREEDEEEDDEFEEVADDPIVMVAGRPFSYSEVSQRPELVAQMTPEEKEAYIAMGQRMFEDLFE

Variants of: B1
Test: co-immunoprecipitation (IP of IIEα), immunoblot quantified
Conditions: with Flag-TFIIEα, n = 3, means ± s.d., read off a plot

Variant	screen value (150 mM KCl) [a.u.]	screen value (500 mM KCl) [a.u.]
chain 1 MDPSLLRERELFKKRALSTPVVEKRSASSESSSSSSKKKKTKVEHGGSSGSKQNSDHSNGSFNLKALSGSSGYKFGVLAKIVNYMKTRHQRGDTHPLTLDEILDETQHLDIGLKQKQWLMTEALVNNPKIEVIDGKYAFKPKYNVRDKKALLRLLDQHDQRGLGGILLEDIEEALPNSQKAVKALGYQILFVNRPDKKKILFFNDKSCQFSVDEEFQKLWRSVTVDSMDEEKIEEYLKRQGISSMQESGPKKVAPIQRRKKPASQKKRRFKTHNEHLAGVLKDYSDITSSK [chain 1 D187Y]	0.85	0.45
chain 1 MDPSLLRERELFKKRALSTPVVEKRSASSESSSSSSKKKKTKVEHGGSSGSKQNSDHSNGSFNLKALSGSSGYKFGVLAKIVNYMKTRHQRGDTHPLTLDEILDETQHLDIGLKQKQWLMTEALVNNPKIEVIDGKYAFKPKYNVRDKKPLLRLLDQHDQRGLGGILLEDIEEALPNSQKAVKALGDQILFVNRPDKKKILFFNDKSCQFSVDEEFQKLWRSVTVDSMDEEKIEEYLKRQGISSMQESGPKKVAPIQRRKKPASQKKRRFKTHNEHLAGVLKDYSDITSSK [chain 1 A150P]	0.78	0.67
